We go through nine proteins from article PMC3104517 (Nature Communications, 2011).

The data set concerns the molecule itself. Description: 2D crystallisation on lipid monolayers, negative-stain TEM.

B1: AnxA5 triple mutant R16E/K27E/K56E (natural protein, rat)
chain: ALRGTVTDFSGFDGEADAEVLRKAMEGLGTDEDSILNLLTARSNAQRQQIAEEFETLFGRDLVNDMKSELTGKFEKLIVALMKPSRLYDAYELKHALKGAGTDEKVLTEIIASRTPEELRAIKQAYEEEYGSNLEDDVVGDTSGYYQRMLVVLLQANRDPDTAIDDAQVELDAQALFQAGELKWGTDEEKFITILGTRSVSHLRRVFDKYMTISGFQIEETIDRETSGNLENLLLAVVKSIRSIPAYLAETLYYAMKGAGTDDHTLIRVIVSRSEIDLFNIRKEFRKNFATSLYSMIKGDTSGDYKKALLLLCGGEDD
For B1, the binding result is recorded as “binds”.

B2: AnxA5 triple mutant R23E/K27E/K191E (natural protein, rat)
chain: ALRGTVTDFSGFDGRADAEVLEKAMEGLGTDEDSILNLLTARSNAQRQQIAEEFKTLFGRDLVNDMKSELTGKFEKLIVALMKPSRLYDAYELKHALKGAGTDEKVLTEIIASRTPEELRAIKQAYEEEYGSNLEDDVVGDTSGYYQRMLVVLLQANRDPDTAIDDAQVELDAQALFQAGELKWGTDEEEFITILGTRSVSHLRRVFDKYMTISGFQIEETIDRETSGNLENLLLAVVKSIRSIPAYLAETLYYAMKGAGTDDHTLIRVIVSRSEIDLFNIRKEFRKNFATSLYSMIKGDTSGDYKKALLLLCGGEDD
With B2, the binding result is reported as “binds”.

B3: AnxA5 single mutant R23E (natural protein, rat)
chain: ALRGTVTDFSGFDGRADAEVLEKAMKGLGTDEDSILNLLTARSNAQRQQIAEEFKTLFGRDLVNDMKSELTGKFEKLIVALMKPSRLYDAYELKHALKGAGTDEKVLTEIIASRTPEELRAIKQAYEEEYGSNLEDDVVGDTSGYYQRMLVVLLQANRDPDTAIDDAQVELDAQALFQAGELKWGTDEEKFITILGTRSVSHLRRVFDKYMTISGFQIEETIDRETSGNLENLLLAVVKSIRSIPAYLAETLYYAMKGAGTDDHTLIRVIVSRSEIDLFNIRKEFRKNFATSLYSMIKGDTSGDYKKALLLLCGGEDD
As for B3, the binding result was “binds”.

B4: AnxA5 single mutant K27E (natural protein, rat)
chain: ALRGTVTDFSGFDGRADAEVLRKAMEGLGTDEDSILNLLTARSNAQRQQIAEEFKTLFGRDLVNDMKSELTGKFEKLIVALMKPSRLYDAYELKHALKGAGTDEKVLTEIIASRTPEELRAIKQAYEEEYGSNLEDDVVGDTSGYYQRMLVVLLQANRDPDTAIDDAQVELDAQALFQAGELKWGTDEEKFITILGTRSVSHLRRVFDKYMTISGFQIEETIDRETSGNLENLLLAVVKSIRSIPAYLAETLYYAMKGAGTDDHTLIRVIVSRSEIDLFNIRKEFRKNFATSLYSMIKGDTSGDYKKALLLLCGGEDD
Take B4: the binding result was “binds”.

B5: AnxA5 single mutant R16E (natural protein, rat)
chain: ALRGTVTDFSGFDGEADAEVLRKAMKGLGTDEDSILNLLTARSNAQRQQIAEEFKTLFGRDLVNDMKSELTGKFEKLIVALMKPSRLYDAYELKHALKGAGTDEKVLTEIIASRTPEELRAIKQAYEEEYGSNLEDDVVGDTSGYYQRMLVVLLQANRDPDTAIDDAQVELDAQALFQAGELKWGTDEEKFITILGTRSVSHLRRVFDKYMTISGFQIEETIDRETSGNLENLLLAVVKSIRSIPAYLAETLYYAMKGAGTDDHTLIRVIVSRSEIDLFNIRKEFRKNFATSLYSMIKGDTSGDYKKALLLLCGGEDD
Turning to B5, the binding result is “binds”.

B6: AnxA5 single mutant K191E (natural protein, rat)
chain: ALRGTVTDFSGFDGRADAEVLRKAMKGLGTDEDSILNLLTARSNAQRQQIAEEFKTLFGRDLVNDMKSELTGKFEKLIVALMKPSRLYDAYELKHALKGAGTDEKVLTEIIASRTPEELRAIKQAYEEEYGSNLEDDVVGDTSGYYQRMLVVLLQANRDPDTAIDDAQVELDAQALFQAGELKWGTDEEEFITILGTRSVSHLRRVFDKYMTISGFQIEETIDRETSGNLENLLLAVVKSIRSIPAYLAETLYYAMKGAGTDDHTLIRVIVSRSEIDLFNIRKEFRKNFATSLYSMIKGDTSGDYKKALLLLCGGEDD
For B6, the binding result is given as “binds”.

B7: AnxA5 triple mutant R16E/K27E/K191E (natural protein, rat)
chain: ALRGTVTDFSGFDGEADAEVLRKAMEGLGTDEDSILNLLTARSNAQRQQIAEEFKTLFGRDLVNDMKSELTGKFEKLIVALMKPSRLYDAYELKHALKGAGTDEKVLTEIIASRTPEELRAIKQAYEEEYGSNLEDDVVGDTSGYYQRMLVVLLQANRDPDTAIDDAQVELDAQALFQAGELKWGTDEEEFITILGTRSVSHLRRVFDKYMTISGFQIEETIDRETSGNLENLLLAVVKSIRSIPAYLAETLYYAMKGAGTDDHTLIRVIVSRSEIDLFNIRKEFRKNFATSLYSMIKGDTSGDYKKALLLLCGGEDD
Take B7: the binding result was “binds”.

B8: AnxA5 double mutant K27E/K191E (natural protein, rat)
chain: ALRGTVTDFSGFDGRADAEVLRKAMEGLGTDEDSILNLLTARSNAQRQQIAEEFKTLFGRDLVNDMKSELTGKFEKLIVALMKPSRLYDAYELKHALKGAGTDEKVLTEIIASRTPEELRAIKQAYEEEYGSNLEDDVVGDTSGYYQRMLVVLLQANRDPDTAIDDAQVELDAQALFQAGELKWGTDEEEFITILGTRSVSHLRRVFDKYMTISGFQIEETIDRETSGNLENLLLAVVKSIRSIPAYLAETLYYAMKGAGTDDHTLIRVIVSRSEIDLFNIRKEFRKNFATSLYSMIKGDTSGDYKKALLLLCGGEDD
In the case of B8, the binding result is “binds”.

B9: AnxA5 single mutant K56E (natural protein, rat)
chain: ALRGTVTDFSGFDGRADAEVLRKAMKGLGTDEDSILNLLTARSNAQRQQIAEEFETLFGRDLVNDMKSELTGKFEKLIVALMKPSRLYDAYELKHALKGAGTDEKVLTEIIASRTPEELRAIKQAYEEEYGSNLEDDVVGDTSGYYQRMLVVLLQANRDPDTAIDDAQVELDAQALFQAGELKWGTDEEKFITILGTRSVSHLRRVFDKYMTISGFQIEETIDRETSGNLENLLLAVVKSIRSIPAYLAETLYYAMKGAGTDDHTLIRVIVSRSEIDLFNIRKEFRKNFATSLYSMIKGDTSGDYKKALLLLCGGEDD
As for B9, the binding result is recorded as “binds”.
